Measurements published in publication PMC7611088 (Nature methods, 2021).

Target: MbNbF3^c7HopQ (H. pylori)
Experiment: BLI

B1: membrane scaffold protein MSP1D1 (other)
chain: STFSKLREQLGPVTQEFWDNLEKETEGLRQEMSKDLEEVKAKVQPYLDDFQKKWQEEMELYRQKVEPLRAELQEGARQKLHELQEKLSPLGEEMRDRARAHVDALRTHLAPYSDELRQRLAARLEALKENGGARLAEYHAKATEHLSTLSEKAKPALEDLRQGLLPVLESFKVSFLSALEEYTKKLNTQ
modifications: biotinylated with EZ-link NHS-Biotin (biotin/antigen ratio 2 - 2.5) for BLI only
- binding result: binds
